Measurements reported in publication PMC8695382 (Nature, 2021).

Legend:
Experiment in all cases: cryo-EM structure; yeast replisome–SCF^Dia2 complexes assembled in the absence of DNA (off DNA); 3.9 Å
Settings in all cases: both partners purified
Mcm3 = target: T1, Mcm3 (Saccharomyces cerevisiae, UniProt P24279 1-971)
T1 construct: Mcm3, S. cerevisiae; Subunit of m2; source: purified as part of CMG

Mcm5 = target: T2, Mcm5 (Saccharomyces cerevisiae, UniProt P29496 1-775)
T2 construct: Mcm5, S. cerevisiae; Subunit of m2; source: purified as part of CMG
T2 sequence: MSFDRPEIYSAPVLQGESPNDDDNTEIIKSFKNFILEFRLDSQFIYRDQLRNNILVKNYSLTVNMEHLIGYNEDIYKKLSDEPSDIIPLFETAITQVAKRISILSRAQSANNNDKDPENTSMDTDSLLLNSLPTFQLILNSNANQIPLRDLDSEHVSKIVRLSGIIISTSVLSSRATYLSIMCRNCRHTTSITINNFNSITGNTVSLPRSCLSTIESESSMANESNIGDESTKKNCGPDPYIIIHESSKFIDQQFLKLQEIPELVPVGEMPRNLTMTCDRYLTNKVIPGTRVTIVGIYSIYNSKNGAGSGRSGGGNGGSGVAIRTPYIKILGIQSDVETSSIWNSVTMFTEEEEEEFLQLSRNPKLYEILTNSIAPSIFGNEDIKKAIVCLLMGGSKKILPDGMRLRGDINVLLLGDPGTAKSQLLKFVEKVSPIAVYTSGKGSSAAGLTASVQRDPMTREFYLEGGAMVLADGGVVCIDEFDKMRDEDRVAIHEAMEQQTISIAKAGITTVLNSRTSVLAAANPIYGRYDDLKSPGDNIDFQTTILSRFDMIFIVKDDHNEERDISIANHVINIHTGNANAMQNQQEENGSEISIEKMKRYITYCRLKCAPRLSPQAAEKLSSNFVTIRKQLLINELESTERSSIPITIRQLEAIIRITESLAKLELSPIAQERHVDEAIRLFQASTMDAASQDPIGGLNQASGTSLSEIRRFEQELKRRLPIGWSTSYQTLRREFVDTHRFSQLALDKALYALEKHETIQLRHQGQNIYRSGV

Mcm7 = target: T3, Mcm7 (Saccharomyces cerevisiae, UniProt P38132 1-845)
T3 construct: Mcm7, S. cerevisiae; Subunit of m2; source: purified as part of CMG
T3 sequence: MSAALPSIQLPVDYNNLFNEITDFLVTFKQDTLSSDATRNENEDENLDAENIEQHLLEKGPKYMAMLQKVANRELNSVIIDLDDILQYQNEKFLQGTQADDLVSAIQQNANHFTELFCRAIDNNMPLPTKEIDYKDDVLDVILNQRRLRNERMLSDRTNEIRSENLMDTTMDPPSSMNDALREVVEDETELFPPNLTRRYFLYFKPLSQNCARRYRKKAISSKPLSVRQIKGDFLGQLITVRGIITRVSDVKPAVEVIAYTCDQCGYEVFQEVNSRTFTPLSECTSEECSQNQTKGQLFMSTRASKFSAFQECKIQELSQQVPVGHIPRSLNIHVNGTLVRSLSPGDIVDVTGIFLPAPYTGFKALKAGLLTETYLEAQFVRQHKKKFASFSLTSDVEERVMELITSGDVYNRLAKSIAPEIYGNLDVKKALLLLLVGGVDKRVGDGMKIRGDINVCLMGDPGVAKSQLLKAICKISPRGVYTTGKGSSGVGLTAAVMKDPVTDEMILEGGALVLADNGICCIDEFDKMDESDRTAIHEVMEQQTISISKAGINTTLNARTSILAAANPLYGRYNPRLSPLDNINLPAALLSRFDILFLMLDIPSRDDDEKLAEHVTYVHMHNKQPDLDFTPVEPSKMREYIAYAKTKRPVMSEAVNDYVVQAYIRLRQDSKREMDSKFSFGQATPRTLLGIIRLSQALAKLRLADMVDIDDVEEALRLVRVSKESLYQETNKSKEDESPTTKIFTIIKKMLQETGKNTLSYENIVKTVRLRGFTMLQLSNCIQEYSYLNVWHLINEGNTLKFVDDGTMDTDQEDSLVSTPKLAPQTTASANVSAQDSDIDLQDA

Measured: binding result

T1 sequence (P24279 whole entry): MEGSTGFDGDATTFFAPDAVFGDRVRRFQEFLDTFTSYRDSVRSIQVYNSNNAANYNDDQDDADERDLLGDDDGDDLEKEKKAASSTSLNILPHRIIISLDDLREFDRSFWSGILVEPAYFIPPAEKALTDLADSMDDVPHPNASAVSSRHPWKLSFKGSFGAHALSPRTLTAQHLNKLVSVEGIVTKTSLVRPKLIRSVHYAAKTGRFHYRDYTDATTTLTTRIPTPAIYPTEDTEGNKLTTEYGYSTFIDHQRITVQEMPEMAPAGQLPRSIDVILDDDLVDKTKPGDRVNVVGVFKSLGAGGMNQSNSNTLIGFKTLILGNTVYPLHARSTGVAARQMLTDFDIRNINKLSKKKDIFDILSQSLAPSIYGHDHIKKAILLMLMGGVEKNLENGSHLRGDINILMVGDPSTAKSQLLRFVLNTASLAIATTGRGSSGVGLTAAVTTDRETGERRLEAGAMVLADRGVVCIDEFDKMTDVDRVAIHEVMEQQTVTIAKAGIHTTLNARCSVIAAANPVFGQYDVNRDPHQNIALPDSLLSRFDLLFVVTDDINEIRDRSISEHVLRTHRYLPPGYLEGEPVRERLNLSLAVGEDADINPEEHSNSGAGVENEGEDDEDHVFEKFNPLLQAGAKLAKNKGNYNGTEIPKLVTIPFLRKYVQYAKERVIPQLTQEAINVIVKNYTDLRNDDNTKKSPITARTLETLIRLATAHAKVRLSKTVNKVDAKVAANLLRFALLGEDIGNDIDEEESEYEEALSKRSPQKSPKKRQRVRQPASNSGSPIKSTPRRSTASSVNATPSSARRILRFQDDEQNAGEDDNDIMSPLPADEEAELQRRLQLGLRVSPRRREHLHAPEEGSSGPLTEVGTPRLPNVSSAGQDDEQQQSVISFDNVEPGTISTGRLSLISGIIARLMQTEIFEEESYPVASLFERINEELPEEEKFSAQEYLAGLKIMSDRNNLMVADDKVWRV

B1: Dia2 (natural protein, Saccharomyces cerevisiae)
chain: MSSPGNSGVAIDSTVLKAIELGTRLFKSGEYLQAKRIFTNALRVCDSYSQEQIMRIRNAYQLDTARPDNKRLYHPRYIKILDNICACYEKLNDLKSCLDVSQRLLKLEPGNIKCYIRCTRTLIKLKDWKRAYKTCSRGLQLCNNDSNHLRQQKQFIKNNMVQKQDGKRSYIDPLEETKIAKKKKNNNVLESLPKKKIKGSTKKTDLVGNLPIEILPIIFQRFTTKELVTLSLVCNKWRDKILYHLDCFQEFNLAPINFKNFVKFMDFLQQNFTRTYRKYILSQVKVSSRITSEELRITQLLFSKMPKCINIERLILSMPTLTTTQIFKLMVRGGTDFFTRLLELSLMITYRPDKQHELEILQTCPLLKKIELIFVNSLVPIFDGNNSVGRDGSFNVMARHTNMQISTADNDEQGIVEEKVIYSELEKITLICDKKKIKNFPLCRALLRGQFPLLQKLTITGVTFPMNNQDIMNFQWLLNFPDLKELWIEDNDNCELSKFLQLLKFSNVWKNLEKLTFRENKLYPIVNLDEDQPVTNDDEVPSMLFYKENLQNLEKLDLMGTSISGSALTRLCEQEYLDGRKLRSLNIGNCPNIQFPNNHAHTARMILDVNAVLKRLSKLEEINLSHLSSLNDSTMKSFIINVPFLENLKRLDISHNFEITGISIYEFLKKFQMDHDNEAGGQPLAYLNIDGCSQVSHITVNMIRAQNLVTQVDCVYERDVWRKFGINSYSYS
notes: Dia2, F-box protein, S. cerevisiae; model built for F-box (211–247), LRRs (248–716) and C-terminal tail (717–732); N-terminal TPR domain not visible; Subunit of m1 as it stands in the cryo-EM samples; also called Dia2^LRR (its leucine-rich repeat domain); source: purified as part of SCF^Dia2
binds: all assays above
